Test results taken from article PMC10920075 (Nature structural & molecular biology, 2023).

Biological target: the molecule itself
Test: cryo-EM structure

B1: DNA polymerase γ accessory subunit PolγB (natural protein, human, UniProt Q9UHN1 26-485, looked up)
chain: DAGQPELLTERSSPKGGHVKSHAELEGNGEHPEAPGSGEGSEALLEICQRRHFLSGSKQQLSRDSLLSGCHPGFGPLGVELRKNLAAEWWTSVVVFREQVFPVDALHHKPGPLLPGDSAFRLVSAETLREILQDKELSKEQLVAFLENVLKTSGKLRENLLHGALEHYVNCLDLVNKRLPYGLAQIGVCFHPVFDTKQIRNGVKSIGEKTEASLVWFTPPRTSNQWLDFWLRHRLQWWRKFAMSPSNFSSSDCQDEEGRKGNKLYYNFPWGKELIETLWNLGDHELLHMYPGNVSKLHGRDGRKNVVPCVLSVNGDLDRGMLAYLYDSFQLTENSFTRKKNLHRKVLKLHPCLAPIKVALDVGRGPTLELRQVCQGLFNELLENGISVWPGYLETMQSSLEQLYSKYDEMSILFTVLVTETTLENGLIHLRSRDTTMKEMMHISKLKDFLIKYISSAKNV
stoichiometry N: 2
